Data: article PMC4772809, “Network of protein interactions within the Drosophila inner kinetochore” (Open Biology, 2016)
Each block holds one molecule with its values, some of them ahead of it.

T1: Nnf1a^122–147 peptide (Drosophila melanogaster, N-terminus acetylated; C-terminus amidated)
T1 construct: also called Peptide Nnf1; Nnf1a R122-A147; source: synthetic peptide, bought: GenScript
T1 peptide: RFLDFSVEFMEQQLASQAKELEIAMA

T2: 6xHis::CENP-C^1–94 (Drosophila melanogaster, UniProt Q9VHP9 1-94)
T2 construct: also called His-tagged CENP-C 1-94; source: E. coli BL21(DE3)
T2 sequence (looked up): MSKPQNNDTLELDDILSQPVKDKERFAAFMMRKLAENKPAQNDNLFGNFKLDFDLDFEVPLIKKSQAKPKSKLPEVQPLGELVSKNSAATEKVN

T3: 6xHis::Nsl1 (Drosophila melanogaster, UniProt Q9VYX4 1-183)
T3 construct: residues up to 183 are printed; not the NSL-complex protein of the same name; source: E. coli BL21(DE3), co-expressed from Duet vectors (induced overnight); in lysate for Ni-NTA co-purification, then purified (Ni-NTA, SEC)
T3 sequence (looked up): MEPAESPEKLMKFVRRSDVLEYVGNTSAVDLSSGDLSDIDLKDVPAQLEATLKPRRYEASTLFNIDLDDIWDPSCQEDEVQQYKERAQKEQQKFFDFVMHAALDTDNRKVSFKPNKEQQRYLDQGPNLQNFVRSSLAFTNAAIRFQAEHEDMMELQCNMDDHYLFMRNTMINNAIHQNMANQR

T4: 6xHis::Nnf1a (Drosophila melanogaster, UniProt Q7JZC9 1-194)
T4 construct: written 6xHis::Nnf1a; also called polyhistidine (His)-tagged Nnf1a; source: E. coli BL21(DE3), co-expressed from Duet vectors; in lysate for Ni-NTA co-purification, then purified (Ni-NTA, SEC)
T4 sequence (looked up): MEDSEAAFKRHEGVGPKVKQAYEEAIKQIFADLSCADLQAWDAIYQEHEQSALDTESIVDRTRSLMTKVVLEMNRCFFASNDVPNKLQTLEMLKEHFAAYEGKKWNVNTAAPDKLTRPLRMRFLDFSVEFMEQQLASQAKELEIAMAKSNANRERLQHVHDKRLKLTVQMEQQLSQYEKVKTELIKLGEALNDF

B1: Mis12^101–130 peptide (peptide)
peptide: Ac-TSEEEEQKTARLEELKAKYRENMAMLAHLK-NH2
notes: also called Mis12 peptide; Mis12 T101-K130; source: synthetic peptide, bought: GenScript
B2: Nnf1a + Mis12 (both untagged) (complex, Drosophila melanogaster)
chain 1: T4 sequence (looked up)
chain 2: MDFNSLAYDQKFFNFTAAQLSAEREHIVQDIIKKGIGQIIDKIKTPATAELLEAEKETVERRFQASASKGLKALRELDSKVFHVPPHVLHPEHMFVENQYTSEEEEQKTARLEELKAKYRENMAMLAHLKIEEEKYAAMEDLIQKEIEMQDRVQRSCSSLNITKLKQFWNQVPLQIKKETD
notes: Nnf1a, as m6; Mis12, as m2; co-purified through a His tag on the third co-expressed protein; also called Mis12–Nnf1a dimer; MN dimer; source: E. coli BL21(DE3), co-expressed from Duet vectors; in lysate for Ni-NTA co-purification, then purified (Ni-NTA, SEC); copies: 1 + 1
B3: 6xHis::Nnf1a–Mis12 heterodimer (complex, Drosophila melanogaster)
chain 1: T4 sequence (looked up)
chain 2: B2 chain 2
notes: Nnf1a, as m1; Mis12, as m2; 1 : 1 by SEC-MALS; also called MN dimer; MN; source: E. coli BL21(DE3), co-expressed from Duet vectors; in lysate for Ni-NTA co-purification, then purified (Ni-NTA, SEC); copies: 1 + 1
B4: Mis12 (untagged, recombinant) (natural protein, Drosophila melanogaster, UniProt Q9VS01 1-181, looked up)
chain: B2 chain 2
notes: source: E. coli BL21(DE3), co-expressed from Duet vectors; in lysate for Ni-NTA co-purification, then purified (Ni-NTA, SEC)
B5: CENP-C^1–94 (untagged, recombinant) (domain or fragment, Drosophila melanogaster, UniProt Q9VHP9 1-94, looked up)
chain: T2 sequence (looked up)
notes: also called amino-terminal part of CENP-C (residues 1–94); source: E. coli BL21(DE3), co-expressed from Duet vectors; in lysate for Ni-NTA co-purification, then purified (Ni-NTA, SEC)

Key:
[1] = target: Mis12–Nnf1a–CENP-C^1–94 complex (Drosophila melanogaster) (UniProt Q9VHP9); assay: SEC-MALS; complexes already collected from SEC, stored at 4 °C in SEC buffer and re-loaded; two elution peaks, masses by MALS
Nnf1a^122–147 peptide = target: T1, Nnf1a^122–147 peptide; assay: circular dichroism; synthetic peptides alone and in equimolar mixture, 0.1 M PBS pH 7.4, 195–270 nm, room temperature; settings: both partners purified
6xHis::CENP-C^1–94 = target: T2, 6xHis::CENP-C^1–94; assay: SEC-MALS; co-expressed, co-purified complexes on Superdex 200 10/300 at 4 °C, 150 mM NaCl, 10 mM Tris/HCl pH 8.0, in-line MALS and refractometer; settings: both partners purified
6xHis::Nsl1 = target: T3, 6xHis::Nsl1; assay: as above; settings: both partners purified
[2] = target: the molecule itself; assay: SEC-MALS; complexes already collected from SEC, stored at 4 °C in SEC buffer and re-loaded; two elution peaks, masses by MALS
6xHis::Nnf1a = target: T4, 6xHis::Nnf1a; assay: SEC-MALS; co-expressed, co-purified complexes on Superdex 200 10/300 at 4 °C, 150 mM NaCl, 10 mM Tris/HCl pH 8.0, in-line MALS and refractometer; settings: both partners purified
[3] = target: B3; assay: as above; settings: both partners purified

- stoichiometry N [1]: 2
Molecule: Mis12–Nnf1a–CENP-C^1–94 complex (from UniProt Q9VHP9 1-94)

Molecule: B1
- binding result (Nnf1a^122–147 peptide): binds

Molecule: B2
- stoichiometry N (6xHis::CENP-C^1–94): 1
- stoichiometry N (6xHis::Nsl1): 1

Molecule: B3
- stoichiometry N [2]: 2

Molecule: B4
- stoichiometry N (6xHis::Nnf1a): 1

Molecule: B5
- stoichiometry N [3]: 1
